Consider three substances from US11306156.

Assay [1] concerns the target D3H44 Fab heavy chain L124E_L143E_K145M, C-terminal ABD2-His6 tag. Kind of assay: LCCA co-expression, SPR tag read-out; DNA 1:3 norm. to 1:1; competing light chain m8.
In assay [2] the target is D3H44 Fab heavy chain L124E_L143E_K145T, C-terminal ABD2-His6 tag. The assay is described as above.
In assay [3] the target is D3H44 Fab heavy chain L124R_S186R, C-terminal ABD2-His6 tag. Described as above.
Assay [4] concerns the target D3H44 Fab heavy chain L124E_L143E_K145M, C-terminal ABD2-His6 tag. Description: LCCA (co-expression, SPR read-out of light chain tags), L1:L2 DNA 1:3 normalised to 1:1; competitor m10.
For assay [5], the target named is D3H44 Fab heavy chain L124E_L143E_K145T, C-terminal ABD2-His6 tag. The assay is described as above.
Assay [6] addresses D3H44 Fab heavy chain L124R_S186K, C-terminal ABD2-His6 tag. The description is as above.
For assay [7], the target named is D3H44 Fab heavy chain L124E_L143D_K145M, C-terminal ABD2-His6 tag. Kind of assay: LCCA (co-expression, SPR read-out of light chain tags), L1:L2 DNA 1:3 normalised to 1:1; competitor m11.
Assay [8] addresses D3H44 Fab heavy chain L124E_L143D_K145T, C-terminal ABD2-His6 tag. The description is as above.
Assay [9] deals with D3H44 Fab heavy chain L124R_S186R, C-terminal ABD2-His6 tag. The assay is described as above.
Assay [10] deals with D3H44 Fab heavy chain L124E_L143D_K145M, C-terminal ABD2-His6 tag. Description: LCCA set 9176 (co-expression; SPR read-out of light-chain tags; L1:L2 DNA 1:3, normalized to 1:1); competing light chain m10.
For assay [11] the target is unchanged. Kind of assay: LCCA set 9196 (co-expression; SPR read-out of light-chain tags; L1:L2 DNA 1:3, normalized to 1:1); competing light chain m13.
Assay [12] concerns the target D3H44 Fab heavy chain L124E_L143D_K145T, C-terminal ABD2-His6 tag. Kind of assay: LCCA set 9214 (co-expression; SPR read-out of light-chain tags; L1:L2 DNA 1:3, normalized to 1:1); competing light chain m10.
For assay [13], the target named is D3H44 Fab heavy chain L124E_L143E_K145M, C-terminal ABD2-His6 tag. Description: LCCA set 9257 (co-expression; SPR read-out of light-chain tags; L1:L2 DNA 1:3, normalized to 1:1); competing light chain m10.
The target in assay [14] is D3H44 Fab heavy chain L124R_S186K, C-terminal ABD2-His6 tag. Kind of assay: LCCA set 9451 (co-expression; SPR read-out of light-chain tags; L1:L2 DNA 1:3, normalized to 1:1); competing light chain m10.
Assay [15] shares this target. Kind of assay: LCCA set 9461 (co-expression; SPR read-out of light-chain tags; L1:L2 DNA 1:3, normalized to 1:1); competing light chain m13.
Assay [16] has as its target D3H44 Fab heavy chain L124R_S186R, C-terminal ABD2-His6 tag. Description: LCCA set 9505 (co-expression; SPR read-out of light-chain tags; L1:L2 DNA 1:3, normalized to 1:1); competing light chain m10.
The target of assay [17] is D3H44 Fab heavy chain L124E_L143D_K145T, C-terminal ABD2-His6 tag. Kind of assay: LCCA co-expression, SPR tag read-out; DNA 1:3 norm. to 1:1; competing light chain m11.
Assay [18] addresses D3H44 Fab heavy chain L124E_L143E_K145M, C-terminal ABD2-His6 tag. The assay is described as above.
In assay [19] the target is D3H44 Fab heavy chain L124E_L143E_K145T, C-terminal ABD2-His6 tag. Described as above.
Assay [20] concerns the target D3H44 Fab heavy chain L124R_Q179K, C-terminal ABD2-His6 tag. Described as above.
Assay [21] has as its target D3H44 Fab heavy chain L124E_L143E_K145M, C-terminal ABD2-His6 tag. Description: LCCA co-expression, SPR tag read-out; DNA 1:3 norm. to 1:1; competing light chain m12.
Assay [22] deals with D3H44 Fab heavy chain L124E_L143E_K145T, C-terminal ABD2-His6 tag. The description is as above.
In assay [23] the target is D3H44 Fab heavy chain L124R_Q179K, C-terminal ABD2-His6 tag. Described as above.
For assay [24], the target named is D3H44 Fab heavy chain L124E_L143E_K145T, C-terminal ABD2-His6 tag. Description: LCCA co-expression, SPR tag read-out; DNA 1:3 norm. to 1:1; competing light chain m14.
The target in assay [25] is D3H44 Fab heavy chain L124R_Q179K, C-terminal ABD2-His6 tag. The assay is described as above.
For assay [26], the target named is D3H44 Fab heavy chain L124E_L143D_K145M, C-terminal ABD2-His6 tag. Kind of assay: LCCA (co-expression, SPR read-out of light chain tags), L1:L2 DNA 1:3 normalised to 1:1; competitor m13.
Assay [27] deals with D3H44 Fab heavy chain L124R_Q179K, C-terminal ABD2-His6 tag. The description is as above.
The target of assay [28] is D3H44 Fab heavy chain L124E_L143D_K145M, C-terminal ABD2-His6 tag. Description: LCCA (co-expression, SPR read-out of light chain tags), L1:L2 DNA 1:3 normalised to 1:1; competitor m14.
Assay [29] deals with D3H44 Fab heavy chain L124E_L143D_K145T, C-terminal ABD2-His6 tag. The description is as above.
Assay [30] has as its target D3H44 Fab heavy chain L124R_Q179K, C-terminal ABD2-His6 tag. The assay is described as above.
The target in assay [31] is D3H44 Fab heavy chain L124E_L143E_K145T, C-terminal ABD2-His6 tag. Description: LCCA set 9271 (co-expression; SPR read-out of light-chain tags; L1:L2 DNA 1:3, normalized to 1:1); competing light chain m17.
In assay [32] the target is D3H44 Fab heavy chain L124R_D146N_Q179K, C-terminal ABD2-His6 tag. Description: LCCA set 9350 (co-expression; SPR read-out of light-chain tags; L1:L2 DNA 1:3, normalized to 1:1); competing light chain m17.
Assay [33] deals with D3H44 Fab heavy chain L124R_S186K, C-terminal ABD2-His6 tag. Kind of assay: LCCA co-expression, SPR tag read-out; DNA 1:3 norm. to 1:1; competing light chain m8.
Assay [34] has as its target D3H44 Fab heavy chain L124R_S186R, C-terminal ABD2-His6 tag. Description: LCCA (co-expression, SPR read-out of light chain tags), L1:L2 DNA 1:3 normalised to 1:1; competitor m10.
In assay [35] the target is D3H44 Fab heavy chain L124R_S186K, C-terminal ABD2-His6 tag. Kind of assay: LCCA (co-expression, SPR read-out of light chain tags), L1:L2 DNA 1:3 normalised to 1:1; competitor m11.
Assay [36] concerns the target D3H44 Fab heavy chain L124E_L143D_K145M, C-terminal ABD2-His6 tag. Kind of assay: LCCA set 9199 (co-expression; SPR read-out of light-chain tags; L1:L2 DNA 1:3, normalized to 1:1); competing light chain m13.
Assay [37] has as its target D3H44 Fab heavy chain L124E_L143D_K145T, C-terminal ABD2-His6 tag. Kind of assay: LCCA set 9217 (co-expression; SPR read-out of light-chain tags; L1:L2 DNA 1:3, normalized to 1:1); competing light chain m10.
Assay [38] has as its target D3H44 Fab heavy chain L124E_L143E_K145M, C-terminal ABD2-His6 tag. Kind of assay: LCCA set 9253 (co-expression; SPR read-out of light-chain tags; L1:L2 DNA 1:3, normalized to 1:1); competing light chain m11.
Assay [39] addresses D3H44 Fab heavy chain L124R_S186K, C-terminal ABD2-His6 tag. Description: LCCA set 9473 (co-expression; SPR read-out of light-chain tags; L1:L2 DNA 1:3, normalized to 1:1); competing light chain m10.
Assay [40] has the same target. Kind of assay: LCCA set 9484 (co-expression; SPR read-out of light-chain tags; L1:L2 DNA 1:3, normalized to 1:1); competing light chain m13.
Assay [41] has as its target D3H44 Fab heavy chain L124R_S186R, C-terminal ABD2-His6 tag. Kind of assay: LCCA set 9526 (co-expression; SPR read-out of light-chain tags; L1:L2 DNA 1:3, normalized to 1:1); competing light chain m11.

Turning to “D3H44 light chain Q124E_V133G_S176D_T178D_T180E, N-terminal HA or FLAG tag”, the H1L1:H1L2 normalized median ratio (% (ratio normalized to 100)) in assay [1] amounted to 5; in [2], 4. The H2L2:H2L1 normalized median ratio (% (ratio normalized to 100)) in assay [3] was found to be 88. Moreover, the H1L1:H1L2 normalized median ratio in [4] is 5%; in assay [5] it was 4%; in [7] it was 12%; in assay [8], 14%. Also, the H2L2:H2L1 normalized median ratio came to 82% in assay [6] and 94% in assay [9]. In addition, the H1L1:H1L2 normalized median ratio (H1L2 part) in assay [10] turned out to be 17%; in assay [11], 12%; in assay [12] it was 15%; in assay [13], 16%. Moreover, the figures for the H2L2:H2L1 normalized median ratio (H2L2 part) in [14], in [15] and in [16] were 93%, 89% and 94%, respectively.
With “D3H44 light chain Q124K_V133G_Q160K_S176R, N-terminal HA or FLAG tag”, the H1L1:H1L2 normalized median ratio (% (ratio normalized to 100)) in assay [17] came to 94; in assay [18], 94; in assay [19] it was 95; in [21], 92; in assay [22], 95; in assay [24], 94. Besides, the H1L1:H1L2 normalized median scalar value ln(r1/f1) came to 2.69 in assay [17]; 2.72 in assay [18]; 3 in [19]; 2.92 in assay [22]; 2.36 in [26]; 2.92 in [31]. Further, the H2L2:H2L1 normalized median ratio (% (ratio normalized to 100)) in assay [20] came out at 8; in assay [23], 8; in [25], 10. The H1L1:H1L2 normalized median ratio came out at 91% in assay [26], 92% in [28] and 92% in [29]. Further, the H2L2:H2L1 normalized median ratio in [27] and in [30] was 8% throughout. For the same substance, in assay [31], the H1L1:H1L2 normalized median ratio (H1L1 part) worked out at 95%. The H2L2:H2L1 normalized median ratio (H2L1 part) in [32] is 18%.
For “D3H44 light chain V133G_S176D_T178D_T180E, N-terminal HA or FLAG tag”, the results for the H1L1:H1L2 normalized median ratio (% (ratio normalized to 100)) in assay [1] and in assay [2] were 5 and 4, respectively. In assay [33], the H2L2:H2L1 normalized median ratio (% (ratio normalized to 100)) stood at 90. Also, the results for the H1L1:H1L2 normalized median ratio in assay [5] and in [8] were 4% and 11%, respectively. In addition, the values for the H2L2:H2L1 normalized median ratio in assay [34] and in [35] were 80% and 92%, respectively. Also, the H1L1:H1L2 normalized median ratio (H1L2 part) in assay [36] turned out to be 13%; in assay [37], 18%; in assay [38] it was 5%. Moreover, the results for the H2L2:H2L1 normalized median ratio (H2L2 part) in assay [39], in assay [40] and in assay [41] were 93%, 92% and 80%, respectively.
